Experiments:
[1] = target: S. cerevisiae Nup57 of the short scNup49-Nup57-Nsp1 complex (S. cerevisiae) (UniProt P48837); experiment: SEC
[2] = target: S. cerevisiae Nup57 of the short scNup49-Nup57-Nsp1 complex (S. cerevisiae) (UniProt P48837); experiment: AUC
[3] = target: S. cerevisiae Nsp1 of the short scNup49-Nup57-Nsp1 complex (S. cerevisiae) (UniProt P14907); experiment: SEC
[4] = target: S. cerevisiae Nsp1 of the short scNup49-Nup57-Nsp1 complex (S. cerevisiae) (UniProt P14907); experiment: AUC

Chain of S. cerevisiae Nup57 of the short scNup49-Nup57-Nsp1 complex (S. cerevisiae) (P48837 whole entry, one chain of several): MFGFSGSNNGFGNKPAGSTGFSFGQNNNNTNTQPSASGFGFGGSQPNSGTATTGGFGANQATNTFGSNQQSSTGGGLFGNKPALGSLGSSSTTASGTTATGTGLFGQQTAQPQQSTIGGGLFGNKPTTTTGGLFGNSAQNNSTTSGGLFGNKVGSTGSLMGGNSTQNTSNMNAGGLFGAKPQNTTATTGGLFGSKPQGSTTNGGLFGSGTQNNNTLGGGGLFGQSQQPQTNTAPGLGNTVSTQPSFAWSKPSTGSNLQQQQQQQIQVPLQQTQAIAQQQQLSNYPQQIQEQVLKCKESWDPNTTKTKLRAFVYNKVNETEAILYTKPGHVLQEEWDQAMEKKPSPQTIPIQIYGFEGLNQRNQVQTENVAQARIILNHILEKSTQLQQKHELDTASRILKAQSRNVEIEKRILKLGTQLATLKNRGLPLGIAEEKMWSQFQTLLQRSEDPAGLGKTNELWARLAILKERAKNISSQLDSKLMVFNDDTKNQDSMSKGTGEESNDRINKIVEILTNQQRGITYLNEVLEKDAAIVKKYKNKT

**Q.** “S. cerevisiae Nup49 of the short scNup49-Nup57-Nsp1 complex (from UniProt Q02199 1-472) (domain or fragment)” was tested. Which stoichiometry N [1] did it give?
**A.** 1

**Q.** And the stoichiometry N [2]?
**A.** 1

**Q.** “S. cerevisiae Nup57 of the short scNup49-Nup57-Nsp1 complex (from UniProt P48837 1-541) (domain or fragment)” was tested. Which stoichiometry N [3] did it give?
**A.** 1

**Q.** What about the stoichiometry N [4] of the same substance?
**A.** 1

— article PMC4004597
